Measurements reported in US10556007B2, “Antibody which binds Lrg1 and methods of use” (UCL Business PLC, priority 2015, dated 2020).
Values joined by “and” are separate entries in the source; they are usually repeats but may differ in a detail not shown here. Identical values can stand only once. “Also recorded” adds a separate entry of the source.

How the values were obtained:
[1] = tested on: laser-induced choroidal neovascularisation; experiment: Rat laser-induced choroidal neovascularisation (CNV); type: in vivo; details: Long Evans rats, intravitreal at time of lasering, analysis 7 days later
Description: Several antibodies were tested for their ability to block CNV in the rat. In these experiments mAbs were injected intravitreally at the time of lasering, with eyes being retrieved for analysis 7 days later (FIG. 5). Long Evans rats, aged 6-8 weeks, each received 5 retinal laser burns at the same time as intravitreal delivery of […] mAb or control IgG into both eyes. Four rats were used for each mAb, so a total of 40 lesions were analysed by staining for collagen IV and the neovascular areas quantified. […] Avastin was also tested in the rat laser model (data not shown) and observed to have no effect, consistent with Avastin having low affinity for rat VEGF.

[2] = tested on: HUVEC co-cultured with human fibroblasts; experiment: HUVEC co-culture model of angiogenesis; type: cell-based; details: 14 days co-culture, 10-200 nM
Description: Antibodies 4H2, 15C4 and 3A11 were tested to see if they elicited an inhibition of vessel growth in the co-culture model of angiogenesis. HUVEC were co-cultured with human fibroblasts for 14 days, and then fixed and immunostained with an antibody against PECAM. Avastin was included as a positive control, and all four mAbs were tested at 10, 25, 50, 100 and 200 nM. There were two important observations from this experiment.

B16-F0 tumours = experiment: B16-F0 tumour, 15C4 with cisplatin; type: in vivo, mouse; details: vs IgG and cisplatin
Description: The adherent cell line B16-F0 was harvested and a single-cell suspension of 1×10^6 cells in 100 μl PBS was injected subcutaneously into the lower back of C57B1/6 male mice. Treatment with 15C4 or IgG was started after three days at 50 mg/kg by intraperitoneal injections, and repeated every 3 days. Suboptimal doses of Cisplatin (2.5 mg/kg) were administered to mice bearing tumours with an average size of 0.5 cm^3 every other day by intraperitoneal injections. Tumours were measured with callipers every other day and volume was calculated using the formula: V=(4/3)×π×(L/2)×(W/2)×(H/2).
Cisplatin and IgG or 15C4 treated tumours were immersion fixed in 4% PFA overnight at 4° C. and then immersed in 30% sucrose overnight at 4° C. Tumour tissue was then OCT embedded and frozen for sectioning (40 μm). TUNEL assay was performed using an ApopTag in situ apoptosis detection kit according to manufacturers protocol (Merk Millipore, USA).
The DNA double strand break marker γ-H2AX was stained for in tumour sections, indicating cisplatin-induced DNA damage.

[3] = tested on: Human umbilical vein endothelial cells (HUVEC); experiment: Matrigel tube formation assay; type: cell-based; details: 100 nM antibody, overnight
Description: The antibodies were tested for their ability to inhibit tube formation in a Matrigel assay. Human umbilical vein endothelial cells (HUVEC) were plated on Matrigel and cultured overnight in the presence of 100 nM mAbs. The blocking rabbit polyclonal Lrg1 antibody was also evaluated. […] Blocking with 4H2 never exceeded ˜50%.

[4] = tested on: lesions in RPE/Choroid of the JR5558 mouse; experiment: JR5558 mouse lesion formation; type: in vivo; details: 50 mg/kg IP every 3 days from D14, eyes harvested D25, vs IgG
Description: 15C4 or IgG at 50 mg/kg was administered IP every 3 days from D14. Eyes were harvested on D25 and RPE/Choroid stained with Collagen IV. The number of lesions was counted and data quantified for the two groups.

[5] = tested on: explanted E16.5 mouse metatarsals; experiment: Mouse metatarsal angiogenesis assay (ex vivo); type: cell-based; details: mAbs at 100 nM, 12 days of culture
Description: In this assay the function-blocking activity of the mAbs was tested, using explanted E16.5 mouse metatarsals. Vessels grow spontaneously from the embryonic bones to form a 2D-network that can be readily quantified with regard to, for example, vessel length, calibre and branch points. In the mouse metatarsal assay mAbs were added at 100 nM to the culture medium during 12 days of culture, with replenishment of media and mAbs every two days. At the end of the experiment samples were fixed and immunostained for Platelet endothelial cell adhesion molecule (PECAM), and vascular networks were quantified using Imaris software, with normalization to a phosphate buffered saline (PBS) control.

human Lrg1 = molecular target: T1, human Lrg1 (Homo sapiens, UniProt P02750); experiment: Biacore affinity and binding kinetics, human Lrg1
T1 sequence (P02750 36-347): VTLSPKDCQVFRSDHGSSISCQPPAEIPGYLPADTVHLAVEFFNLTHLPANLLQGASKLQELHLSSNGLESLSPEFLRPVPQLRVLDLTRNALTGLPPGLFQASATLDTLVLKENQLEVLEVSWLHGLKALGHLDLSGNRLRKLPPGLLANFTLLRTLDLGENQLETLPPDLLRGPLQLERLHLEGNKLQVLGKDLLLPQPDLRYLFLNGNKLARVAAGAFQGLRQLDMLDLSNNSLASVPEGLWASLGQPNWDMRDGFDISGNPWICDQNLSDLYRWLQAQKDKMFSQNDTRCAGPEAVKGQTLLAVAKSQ
Description: Biacore was used to measure the binding affinity, association and dissociation constants of the antibodies to human Lrg1. Human Lrg1 was immobilized on the Biacore chip, and mAbs passed across at concentrations ranging from 20-100 nM. A cut off binding affinity value of 2 nM was used to isolate possible candidate antibodies for further investigation.
The four lead mAbs were examined using Biacore, in experiments in which human Lrg1 was immobilized on the chip, and mAbs passed across at concentrations ranging from 20-100 nM. The Table below summarises the kinetic data.

B1: 15C4: mouse monoclonal antibody against human Lrg1, VH SEQ ID NO: 1, VL SEQ ID NO: 2 (antibody, V domains shown)
VH: QVQLQQSGDEVVRPGSSVKISCKASGYTFSGYWMNWVKQRPGQGLQWIGQIYPGDGDTNYNGKFKGKATLTADKSSSTAYMQLSTLTSEDSAIYFCARSITTVVLDYWGQGTTLTVSS
VL: DIVLTQSPVSLAVSLGQRATISCRASQSVSTSGYSFMHWYQQKPGQPPKFLIKYASNLESGVPARFSGSGSGTDFTLNIHPVEEEDTATYYCQHSWEMPLTFGAGTKLELK
modifications: 15C4 Variable Heavy Chain; 15C4 Variable light chain
blockade of angiogenesis (CNV) [1]: functional blockade of angiogenesis; also recorded: effective blockade; also recorded: less efficacious than 4H2 in the in vivo rodent models of angiogenesis
inhibition of vessel growth [2]: equally effective
tumor growth (B16-F0 tumours; 15C4 50 mg/kg IP every 3 days in combination with cisplatin 2.5 mg/kg): significant reduction in tumor growth
apoptosis (TUNEL) (B16-F0 tumours; in combination with cisplatin): Significantly more apoptosis
nuclei with γ-H2AX foci (B16-F0 tumours; in combination with cisplatin): Significantly more nuclei with γ-H2AX foci
blocking of tube formation [3]: 60%
number of lesions [4]: reduces lesion formation; also recorded: significantly fewer lesions
inhibition of angiogenesis (in words) [5]: inhibited angiogenesis
inhibition of angiogenesis ([5]; normalised to PBS control, 0.1 µM): ~40% and > 25%
affinity for human Lrg1 (in words) (human Lrg1; Biacore): affinity in the picomolar range; also recorded: bound with especially high affinity; also recorded: very high affinity; also recorded: much higher affinity for human Lrg1
Ka (human Lrg1; human Lrg1 immobilized on chip, mAbs at 20-100 nM): 1.10E+05
dissociation rate constant (kd) (human Lrg1; rate constant column beside Ka, human Lrg1 immobilized on chip, mAbs at 20-100 nM): 1.40E−07
Kd (human Lrg1; text summary of Biacore data, read-out: binding affinities for human Lrg1): 1.2 pM
